PMC13137875
Where “and” joins values, the source holds several entries; their conditions need not be identical. Equal values may be shown once.

What was measured:
[1] = molecular target: Rabbit skeletal muscle actin (G-actin) (rabbit) (UniProt P68135); assay: SEC-SAXS
[2] = molecular target: G-actin (Oryctolagus cuniculus) (UniProt P68135); settings: cited from earlier work

R. bellii MBP-Sca2/6 (maltose-binding protein tagged passenger domain of Sca2/6) (domain or fragment)
stoichiometry N [1]: 1

Sca2 (from UniProt Q92JF7)
Kd [2]: 20 nM and 200 nM
